We go through three molecules from doi:10.1101/2021.05.10.443400 (bioRxiv, 2021).

Experiment [1] deals with T1, Human MutSα (MSH2-MSH6 complex), purified (human, UniProt P43246 1-934; P52701 1-1360). The experiment can be described thus: pull-down.
The target in experiment [2] is T1, Human MutSα (MSH2-MSH6 complex), …. The experiment is described as follows: co-IP.

T1 sequence (P43246 whole entry, chain 1 of 2): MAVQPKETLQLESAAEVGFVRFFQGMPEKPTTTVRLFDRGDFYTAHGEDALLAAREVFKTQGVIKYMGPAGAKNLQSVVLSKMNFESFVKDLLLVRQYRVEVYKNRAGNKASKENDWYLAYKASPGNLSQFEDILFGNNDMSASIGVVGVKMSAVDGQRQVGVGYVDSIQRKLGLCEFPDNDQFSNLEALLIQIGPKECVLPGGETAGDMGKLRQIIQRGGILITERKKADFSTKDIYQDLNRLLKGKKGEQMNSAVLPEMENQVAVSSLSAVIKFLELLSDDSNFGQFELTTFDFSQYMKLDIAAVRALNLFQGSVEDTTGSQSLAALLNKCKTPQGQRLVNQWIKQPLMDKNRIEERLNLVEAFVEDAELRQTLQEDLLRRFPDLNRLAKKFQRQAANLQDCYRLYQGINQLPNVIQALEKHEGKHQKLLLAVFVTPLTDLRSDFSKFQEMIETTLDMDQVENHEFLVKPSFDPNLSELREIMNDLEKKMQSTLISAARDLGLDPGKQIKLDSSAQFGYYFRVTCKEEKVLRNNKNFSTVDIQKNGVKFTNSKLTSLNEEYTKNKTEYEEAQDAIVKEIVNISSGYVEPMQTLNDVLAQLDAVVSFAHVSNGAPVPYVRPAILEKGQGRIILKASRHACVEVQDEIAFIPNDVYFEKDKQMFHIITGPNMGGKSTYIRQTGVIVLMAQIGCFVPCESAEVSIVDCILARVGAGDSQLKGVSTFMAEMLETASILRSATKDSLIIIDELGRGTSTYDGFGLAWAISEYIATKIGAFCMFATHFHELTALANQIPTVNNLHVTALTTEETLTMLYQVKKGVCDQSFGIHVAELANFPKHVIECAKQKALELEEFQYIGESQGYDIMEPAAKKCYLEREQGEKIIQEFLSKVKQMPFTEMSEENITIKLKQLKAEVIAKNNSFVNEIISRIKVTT
T1 sequence (P52701 whole entry, chain 2 of 2): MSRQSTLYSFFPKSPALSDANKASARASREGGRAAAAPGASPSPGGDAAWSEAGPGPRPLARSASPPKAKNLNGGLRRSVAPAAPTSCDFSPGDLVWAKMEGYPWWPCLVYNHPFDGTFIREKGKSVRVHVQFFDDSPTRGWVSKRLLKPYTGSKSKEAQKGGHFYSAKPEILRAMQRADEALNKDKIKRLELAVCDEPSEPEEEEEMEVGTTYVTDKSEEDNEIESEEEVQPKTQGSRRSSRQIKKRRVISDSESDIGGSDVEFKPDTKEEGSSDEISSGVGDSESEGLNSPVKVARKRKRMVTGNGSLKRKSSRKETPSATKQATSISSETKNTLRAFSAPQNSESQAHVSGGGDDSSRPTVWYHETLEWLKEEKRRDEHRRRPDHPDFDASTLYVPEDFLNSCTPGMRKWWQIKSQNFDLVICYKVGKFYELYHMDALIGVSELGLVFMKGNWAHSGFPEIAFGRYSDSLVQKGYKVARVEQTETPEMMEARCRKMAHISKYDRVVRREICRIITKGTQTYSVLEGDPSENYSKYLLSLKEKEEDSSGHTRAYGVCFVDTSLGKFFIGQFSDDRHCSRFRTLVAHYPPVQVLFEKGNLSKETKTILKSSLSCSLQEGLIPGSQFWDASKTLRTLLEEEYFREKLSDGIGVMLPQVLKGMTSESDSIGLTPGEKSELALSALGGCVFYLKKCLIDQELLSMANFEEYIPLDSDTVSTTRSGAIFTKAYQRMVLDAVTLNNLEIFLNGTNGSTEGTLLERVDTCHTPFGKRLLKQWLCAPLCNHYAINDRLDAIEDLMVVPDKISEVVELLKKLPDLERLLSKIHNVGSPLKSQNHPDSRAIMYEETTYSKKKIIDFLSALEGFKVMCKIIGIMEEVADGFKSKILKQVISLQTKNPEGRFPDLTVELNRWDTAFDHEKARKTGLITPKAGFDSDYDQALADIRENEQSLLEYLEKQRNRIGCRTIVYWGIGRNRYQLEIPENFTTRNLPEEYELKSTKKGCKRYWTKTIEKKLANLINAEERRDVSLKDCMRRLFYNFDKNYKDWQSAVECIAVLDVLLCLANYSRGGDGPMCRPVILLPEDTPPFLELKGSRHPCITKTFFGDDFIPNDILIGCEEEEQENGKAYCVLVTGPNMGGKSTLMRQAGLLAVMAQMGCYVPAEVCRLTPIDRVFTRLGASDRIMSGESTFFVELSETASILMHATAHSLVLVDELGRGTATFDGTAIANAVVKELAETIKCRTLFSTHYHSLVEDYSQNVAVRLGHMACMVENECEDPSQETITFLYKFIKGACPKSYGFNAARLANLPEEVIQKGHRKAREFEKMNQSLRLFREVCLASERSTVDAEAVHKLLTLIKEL

B1: GST-Flag-Orc6 middle TFIIB (TFIIB-B) domain (94-187) (domain or fragment, human, UniProt Q9Y5N6 94-187, looked up)
chain: SNIGIRDLAVQFSCIEAVNMASKILKSYESSLPQTQQVDLDLSRPLFTSAALLSACKILKLKVDKNKMVATSGVKKAIFDRLCKQLEKIGQQVD
As to B1, in experiment [1], the binding result is recorded as “binds”.

B2: Human GST-Flag-Orc6, full length (natural protein, UniProt Q9Y5N6 1-252, looked up)
chain: MGSELIGRLAPRLGLAEPDMLRKAEEYLRLSRVKCVGLSARTTETSSAVMCLDLAASWMKCPLDRAYLIKLSGLNKETYQSCLKSFECLLGLNSNIGIRDLAVQFSCIEAVNMASKILKSYESSLPQTQQVDLDLSRPLFTSAALLSACKILKLKVDKNKMVATSGVKKAIFDRLCKQLEKIGQQVDREPGDVATPPRKRKKIVVEAPAKEMEKVEEMPHKPQKDEDLTQDYEEWKRKILENAASAQKATAE
In the case of B2, the binding result in experiment [1] was “binds”.

B3: Human Flag-MutLα (MLH1-PMS2 complex), purified (complex)
chain 1: MSFVAGVIRRLDETVVNRIAAGEVIQRPANAIKEMIENCLDAKSTSIQVIVKEGGLKLIQIQDNGTGIRKEDLDIVCERFTTSKLQSFEDLASISTYGFRGEALASISHVAHVTITTKTADGKCAYRASYSDGKLKAPPKPCAGNQGTQITVEDLFYNIATRRKALKNPSEEYGKILEVVGRYSVHNAGISFSVKKQGETVADVRTLPNASTVDNIRSIFGNAVSRELIEIGCEDKTLAFKMNGYISNANYSVKKCIFLLFINHRLVESTSLRKAIETVYAAYLPKNTHPFLYLSLEISPQNVDVNVHPTKHEVHFLHEESILERVQQHIESKLLGSNSSRMYFTQTLLPGLAGPSGEMVKSTTSLTSSSTSGSSDKVYAHQMVRTDSREQKLDAFLQPLSKPLSSQPQAIVTEDKTDISSGRARQQDEEMLELPAPAEVAAKNQSLEGDTTKGTSEMSEKRGPTSSNPRKRHREDSDVEMVEDDSRKEMTAACTPRRRIINLTSVLSLQEEINEQGHEVLREMLHNHSFVGCVNPQWALAQHQTKLYLLNTTKLSEELFYQILIYDFANFGVLRLSEPAPLFDLAMLALDSPESGWTEEDGPKEGLAEYIVEFLKKKAEMLADYFSLEIDEEGNLIGLPLLIDNYVPPLEGLPIFILRLATEVNWDEEKECFESLSKECAMFYSIRKQYISEESTLSGQQSEVPGSIPNSWKWTVEHIVYKALRSHILPPKHFTEDGNILQLANLPDLYKVFERC
chain 2: MERAESSSTEPAKAIKPIDRKSVHQICSGQVVLSLSTAVKELVENSLDAGATNIDLKLKDYGVDLIEVSDNGCGVEEENFEGLTLKHHTSKIQEFADLTQVETFGFRGEALSSLCALSDVTISTCHASAKVGTRLMFDHNGKIIQKTPYPRPRGTTVSVQQLFSTLPVRHKEFQRNIKKEYAKMVQVLHAYCIISAGIRVSCTNQLGQGKRQPVVCTGGSPSIKENIGSVFGQKQLQSLIPFVQLPPSDSVCEEYGLSCSDALHNLFYISGFISQCTHGVGRSSTDRQFFFINRRPCDPAKVCRLVNEVYHMYNRHQYPFVVLNISVDSECVDINVTPDKRQILLQEEKLLLAVLKTSLIGMFDSDVNKLNVSQQPLLDVEGNLIKMHAADLEKPMVEKQDQSPSLRTGEEKKDVSISRLREAFSLRHTTENKPHSPKTPEPRRSPLGQKRGMLSSSTSGAISDKGVLRPQKEAVSSSHGPSDPTDRAEVEKDSGHGSTSVDSEGFSIPDTGSHCSSEYAASSPGDRGSQEHVDSQEKAPKTDDSFSDVDCHSNQEDTGCKFRVLPQPTNLATPNTKRFKKEEILSSSDICQKLVNTQDMSASQVDVAVKINKKVVPLDFSMSSLAKRIKQLHHEAQQSEGEQNYRKFRAKICPGENQAAEDELRKEISKTMFAEMEIIGQFNLGFIITKLNEDIFIVDQHATDEKYNFEMLQQHTVLQGQRLIAPQTLNLTAVNEAVLIENLEIFRKNGFDFVIDENAPVTERAKLISLPTSKNWTFGPQDVDELIFMLSDSPGVMCRPSRVKQMFASRACRKSVMIGTALNTSEMKKLITHMGEMDHPWNCPHGRPTMRHIANLGVISQN
On to B3, for which the binding result in experiment [2] is recorded as “binds”.
